Values of other authors as cited in article PMC9477731.

Biological target: CD28 (Homo sapiens) (UniProt P10747)

CD80 (from UniProt P33681)
Kd: 4 µM
